This note sets out measurements from patent US20250109193A1 (FLAGSHIP PIONEERING INNOVATIONS VI, published 2025).

Usually Kd stands for a measure of binding affinity in units of concentration. A word on the IC50: it is the concentration needed to halve the response being measured. The EC50 is the midpoint of the concentration-response curve. A word on the EC80: it is the point of the concentration-response curve where the effect stands at 80%. Usually EC90 stands for the concentration at which the effect reaches the 90% level.

In assay [1] the target is T1, human thymic stromal lymphopoietin (TSLP) (human, UniProt Q969D9 29-159).
T1 construct: also called hTSLP; human TSLP
In words: KinExA, solution equilibrium, 25 C. A general note: In KinExA the mixture passes briefly over coated beads that capture the unbound partner.
Description: The solution equilibrium binding experiments were performed using KinExA 3200 instrument equipped with an autosampler (Sapidyne Instruments, Boise, ID, USA). All analyses were performed at 25° C., and all samples were prepared in 1× phosphate-buffered saline (PBS) filtered buffer supplemented with 1 mg/mL bovine serum albumin (BSA) and 0.02% sodium azide. […] The beads were washed with blocking buffer (1 M Tris supplemented with 10 mg/mL BSA, pH 8.0) and rocked for 1 hour.
The sample injection volumes and flow rates were varied depending upon the antibody tested. […] The concentration, volume and flow rate of the secondary antibody were varied to achieve a signal at less than 1.0 V.
A 1:1 binding equilibrium model was used with the titrant selected as the reference concentration. The drift correction option was used where appropriate.

Assay [2] deals with T1, human thymic stromal lymphopoietin …. As to the kind of experiment: blocking ELISA: antibody titrated against hTSLP-biotin, coated hTSLPR/hIL-7Rα-Fc. (In general: In an ELISA, binding on a coated surface is turned into a signal by an enzyme label.)
Description: A 96 well half area flat bottom plate was coated with 50 μL of recombinant heterodimeric human TSLPR and human IL-7Rα Fe tagged fusion protein (2 μg/mL) in ELISA coating buffer. The plate was incubated overnight at 4° C. and was washed thrice with 150 μL ELISA Wash Buffer (1×PBS-Tween 0.5%) the next day. The plate was blocked with 50 μL of ELISA assay diluent for one hour at 37° C. and was washed three times with 150 μL of ELISA wash buffer. […] The ELISA plate was incubated for 1 hour at 37° C. followed by washing three times with ELISA wash buffer. HRP-Streptavidin (Thermo Fisher Scientific) was diluted 1:2000 in ELISA assay diluent 50 μl was added to each well and incubated for 30 minutes at 37° C. followed by washing three times with ELISA wash buffer. The ELISA was developed by addition of 50 μL of TMB substrate (Thermo Fisher Scientific) and incubation for 2-3 minutes at room temperature (protected from light). The reaction was stopped with acidic stop solution (Thermo Fisher Scientific), and the absorbance was read at 450 nm wavelength using a standard plate reader. Percent inhibition of signal and IC₅₀ values were determined.
A blocking ELISA was performed by coating an ELISA plate with hTSLPR overnight. […] The ELISA plate was incubated for 1 hour at 37° C., followed by washing of the plate. […] The ELISA was developed with TMB substrate, and the HRP enzymatic reaction was stopped with sulfuric acid solution.
The target is the same in assay [3]. As to the kind of experiment: indirect ELISA, coated recombinant hTSLP.
Description: The next day, the plate was washed three times with ELISA Wash Buffer (PBS-Tween 0.5%), blocked with 1×ELISA assay diluent (BioLegend) for one hour. […] The plate was washed three times with ELISA Wash Buffer, and horseradish peroxidase (HRP)-conjugated anti-human IgG Fc secondary antibody (Promega, Madison, WI) at 1:2000 dilution in 1×ELISA assay diluent was added to detect binding of the primary antibody to the antigen. The plate was incubated for 30 minutes at 37° C. with the secondary detection antibody, then the plate was washed and developed with tetramethyl benzidine (TMB) substrate solution (Thermo Fisher Scientific, Waltham, MA). The HRP enzymatic reaction was stopped after about 1 minute with acidic stop solution (Thermo Fisher Scientific), and the absorbance at 450 nm was determined using a standard plate reader. The EC₅₀ values were calculated by fitting a four-parameter non-linear regression line to the average of two technical replicates per concentration.
Another assay concerns the target T2, mouse TSLP (mouse, UniProt Q9JIE6 20-140).
T2 construct: also called mouse TSLP cytokine
T2 sequence (looked up): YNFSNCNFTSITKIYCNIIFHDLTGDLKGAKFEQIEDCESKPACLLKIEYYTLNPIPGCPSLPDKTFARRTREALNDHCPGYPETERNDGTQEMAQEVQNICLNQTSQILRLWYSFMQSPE
As to the kind of experiment: direct ELISA: plate coated with 2 µg/mL mouse TSLP, anti-human IgG-HRP, absorbance at 450 nm.

Assay [4] addresses T3, cynomolgus monkey TSLP (cynomolgus monkey).
T3 chain: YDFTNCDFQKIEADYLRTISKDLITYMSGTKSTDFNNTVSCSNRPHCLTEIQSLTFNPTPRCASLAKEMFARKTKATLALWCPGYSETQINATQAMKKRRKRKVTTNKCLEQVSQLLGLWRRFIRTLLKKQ
In words: cell-based or functional assay.

Assay [5] concerns the target T1, human thymic stromal lymphopoietin …. In words: cell-based or functional assay.
Assay [6] has the same target. In words: indirect ELISA, coated human TSLP; 95% CI in brackets.
Description: (§1) The next day, the plates were washed three times with ELISA wash buffer and blocked with ELISA assay diluent B (BioLegend) for one hour at room temperature (RT). […] Antibody binding was assessed using an 8-point titration curve in triplicates (1:3 serial dilution starting at 10 μg/mL). The plate was washed three times with ELISA wash buffer, and HRP-conjugated anti-human IgG-HRP secondary antibody (Jackson ImmunoResearch Laboratories, Inc.) was added to wells at a 1:5000 dilution in 1×ELISA assay diluent. Secondary antibody was added to detect binding of the primary antibody to the antigen. The plate was incubated for 30 minutes at room temperature with the secondary detection antibody, then the plates were washed three times with ELISA wash buffer and developed with TMB substrate solution (Invitrogen, Waltham, MA). The HRP enzymatic reaction was stopped after about 1 minute with acidic stop solution (Invitrogen), and the absorbance at 450 nm on a Biotek plate reader.
(§2) The EC₅₀ values were calculated using Graphpad Prism 9.2.0 by fitting a four-parameter non-linear regression curve to the average absorbance values of three technical replicates per concentration with three independent experiments. […] N=4 independent experiments with 3 technical replicates. […] N=3 independent experiments with 3 technical replicates.
In assay [7] the target is T3, cynomolgus monkey TSLP. As to the kind of experiment: indirect ELISA, coated cyno TSLP; 95% CI in brackets.
Description: as §1, §2

Description for mouse TSLP: as §1, §2

B1: AB-8 (antibody, V domains shown)
VH: QMQLVESGGGVVQPGRSLRLSCAASGFTFRTYGMHWVRQAPGKGLEWVAVIWYDGSYTHYADSVKGRFTITRDNSKNTLNLQMNSLRAEDTAVYYCARSPQWEDIFEAFDIWGQGTMVTVSS
VL: SYVLTQPPSVSVAPGQTARITCGGNNIGSKSVHWYQQKPGQAPVLVVYDDSDRPSWIPERFSGSNSGNTATLTISRGEAGDEADYYCQVWDSSSSLVVFGGGTKLTVL
For B1, in assay [1], the Kd was found to be 0.000335 nM.

B2: AB-11 (antibody, V domains shown)
VH: QMQLVESGGGVVQPGRSLRLSCAASGFTFRTYGMHWVRQAPGKGLEWVAVISYSGSYIHYADSVKGRFTITRDNSKNTLNLQMNSLRAEDTAVYYCTRSPQWEEVYEALDIWGQGTMVTVSS
VL: SYVLTQPPSVSVAPGQTARITCGGNNIGSFSVHWYQQKPGQAPVLVVYDDSDRPSWIPERFSGSNSGNTATLTISRGEAGDEADYYCQVWSSTSRHVVFGGGTKLTVL
In turn, B2 returned an IC50 in assay [2] of 0.243 nM. Further, in assay [1], the Kd was 0.000754 nM. In assay [3], the EC50 was 0.173 nM.

B3: AB-5 (antibody, V domains shown)
VH: QMQLVESGGGVVQPGRSLRLSCAASGFTFRTYGMHWVRQAPGKGLEWVAVVWYDGYDTHYADSVKGRFTITRDNSKNTLNLQMNSLRAEDTAVYYCSRSPQWEDIFESMDIWGQGTMVTVSS
VL: SYVLTQPPSVSVAPGQTARITCGGNNLGSKSVHWYQQKPGQAPVLVVYDDSDRPSWIPERFSGSNSGNTATLTISRGEAGDEADYYCQVWDMSSDLVVFGGGTKLTVL
On to B3, for which, in assay [2], the IC50 is 0.246 nM. The molecule also gave a Kd in assay [1] of 0.00014 nM. Besides, in assay [3], the EC50 amounted to 0.264 nM.

B4: AB-13 (antibody, V domains shown)
VH: QMQLVESGGGVVQPGRSLRLSCAASGFTFRTYGMHWVRQAPGKGLEWVAVISYDGSTKHYADSVKGRFTITRDNSKNTLNLQMNSLRAEDTAVYYCARAPQWESVYEAFDIWGQGTMVTVSS
VL: SYVLTQPPSVSVAPGQTARITCGGNNLGSFSVHWYQQKPGQAPVLVVYDDSDRPSWIPERFSGSNSGNTATLTISRGEAGDEADYYCQVWDSSEDLVVFGGGTKLTVL
B4 gave an IC50 in assay [2] of 0.223 nM. In assay [3], the EC50 is 0.23 nM.

B5: AB-14 (antibody, V domains shown)
VH: QMQLVESGGGVVQPGRSLRLSCAASGFTFRTYGMHWVRQAPGKGLEWVAVIWYDGSTKHYADSVKGRFTITRDNSKNTLNLQMNSLRAEDTAVYYCARAPQWELVHEAFDIWGQGTMVTVSS
VL: SYVLTQPPSVSVAPGQTARITCGGNNIGSKNVHWYQQKPGQAPVLVVYDDSDRPSWIPERFSGSNSGNTATLTISRGEAGDEADYYCQVWDESSDEVVFGGGTKLTVL
On to B5, for which, in assay [2], the half-inhibitory concentration (IC50) was 0.186 nM. In addition, in assay [1], binding was put at a Kd of 0.000877 nM. In assay [3], the EC50 turned out to be 0.264 nM.

B6: AB-9 (antibody, V domains shown)
VH: QMQLVESGGGVVQPGRSLRLSCAASGFTFRTYGMHWVRQAPGKGLEWVAVIWYDGSYTHYADSVKGRFTITRDNSKNTLNLQMNSLRAEDTAVYYCARSPQWESIFEAFDIWGQGTMVTVSS
VL: SYVLTQPPSVSVAPGQTARITCGGNNIGSKSVHWYQQKPGQAPVLVVYDDSDRPSWIPERFSGSNSGNTATLTISRGEAGDEADYYCQVWDSSSSLVVFGGGTKLTVL
In assay [2], B6 displayed an IC50 of 0.227 nM. The molecule further registered a Kd in assay [1] of 0.000496 nM.

B7: AB-7 (antibody, V domains shown)
VH: QMQLVESGGGVVQPGRSLRLSCAASGFTFRTYGMHWVRQAPGKGLEWVAVIWYSGAYIHYADSVKGRFTITRDNSKNTLNLQMNSLRAEDTAVYYCSRSPQWEDIFEAMDIWGQGTMVTVSS
VL: SYVLTQPPSVSVAPGQTARITCGGNNLGSYSVHWYQQKPGQAPVLVVYDDSDRPSWIPERFSGSNSGNTATLTISRGEAGDEADYYCQVWDMSSSLVVFGGGTKLTVL
Turning to B7, the IC50 in assay [2] was found to be 0.162 nM. In assay [1], the affinity, expressed as Kd, was 0.000184 nM. For the same molecule, the EC50 in assay [3] was determined as 0.29 nM.

B8: AB-1 (antibody, V domains shown)
VH: QMQLVESGGGVVQPGRSLRLSCAASGFTFRTYGMHWVRQAPGKGLEWVAVVWYSGSYTHYADSVKGRFTITRDNSKNTLNLQMNSLRAEDTAVYYCSRSPQWEDIFEAMDIWGQGTMVTVSS
VL: SYVLTQPPSVSVAPGQTARITCGGNNIGSKSVHWYQQKPGQAPVLVVYDDSDRPSWIPERFSGSNSGNTATLTISRGEAGDEADYYCQVWDSSSSLVVFGGGTKLTVL
On to B8, for which the Kd in assay [1] came out at 0.000208 nM. Moreover, the EC50 in assay [3] was 0.265 nM.

B9: AB-2 (antibody, human IgG1, V domains shown)
VH: QMQLVESGGGVVQPGRSLRLSCAASGFTFRTYGMHWVRQAPGKGLEWVAVVWYDGSYTHYADSVKGRFTITRDNSKNTLNLQMNSLRAEDTAVYYCARSPQWEEIFEAMDIWGQGTMVTVSS
VL: SYVLTQPPSVSVAPGQTARITCGGNNIGSKSVHWYQQKPGQAPVLVVYDDSDRPSWIPERFSGSNSGNTATLTISRGEAGDEADYYCQIWDSSSSLVVFGGGTKLTVL
The molecule B9 showed an IC50 in assay [2] of 0.29 nM. Binding in assay [1] was put at a Kd of 0.000123 nM. Also, the EC50 in assay [3] was 0.204 nM.

B10: AB-6 (antibody, V domains shown)
VH: QMQLVESGGGVVQPGRSLRLSCAASGFTFRTYGMHWVRQAPGKGLEWVAVVWYDGSDIHYADSVKGRFTITRDNSKNTLNLQMNSLRAEDTAVYYCSRSPQWEDIFESMDIWGQGTMVTVSS
VL: SYVLTQPPSVSVAPGQTARITCGGNNIGSKSVHWYQQKPGQAPVLVVYDDSDRPSWIPERFSGSNSGNTATLTISRGEAGDEADYYCQIWDSSSDHVVFGGGTKLTVL
As for B10, in assay [1], the Kd was determined as 0.000133 nM. The EC50 in assay [3] turned out to be 0.397 nM.

B11: AB-4 (antibody, V domains shown)
VH: QMQLVESGGGVVQPGRSLRLSCAASGFTFRTYGMHWVRQAPGKGLEWVAVIWYSGSDTHYADSVKGRFTITRDNSKNTLNLQMNSLRAEDTAVYYCARSPQWEDIFESMDVWGQGTMVTVSS
VL: SYVLTQPPSVSVAPGQTARITCGGNYIGSFSVHWYQQKPGQAPVLVVYDDSDRPSWIPERFSGSNSGNTATLTISRGEAGDEADYYCQIYVSASRLVVFGGGTKLTVL
B11 displayed a Kd in assay [1] of 0.000208 nM. The concentration giving a half-maximal response (EC50) in assay [3] was determined as 0.26 nM.

B12: AB-3 (antibody, V domains shown)
VH: QMQLVESGGGVVQPGRSLRLSCAASGFTFRTYGMHWVRQAPGKGLEWVAVIWYDGTYTHYADSVKGRFTITRDNSKNTLNLQMNSLRAEDTAVYYCARSPQWESIFEAFDIWGQGTMVTVSS
VL: SYVLTQPPSVSVAPGQTARITCGGNNIGSKSVHWYQQKPGQAPVLVVYDDSDRPSWIPERFSGSNSGNTATLTISRGEAGDEADYYCQVWDSSSSLVVFGGGTKLTVL
Take B12: the midpoint of inhibition in assay [2], the IC50, lay at 0.232 nM. Also, the Kd in assay [1] is 0.000302 nM. Besides, the EC50 in assay [3] is 0.237 nM.

B13: AB-10 (antibody, V domains shown)
VH: QMQLVESGGGVVQPGRSLRLSCAASGFTFRTYGMHWVRQAPGKGLEWVAVIWYSGTTTHYADSVKGRFTITRDNSKNTLNLQMNSLRAEDTAVYYCSRSPQWEDIFESMDIWGQGTMVTVSS
VL: SYVLTQPPSVSVAPGQTARITCGGNNIGSKNVHWYQQKPGQAPVLVVYDDSDRPSWIPERFSGSNSGNTATLTISRGEAGDEADYYCQVWDSSDFLVVFGGGTKLTVL
The molecule B13 gave an IC50 in assay [2] of 0.251 nM. This molecule also came in with a Kd in assay [1] of 0.000395 nM. Also, the concentration for a half-maximal effect (EC50) in assay [3] is 0.286 nM.

B14: AB-12 (antibody, V domains shown)
VH: QMQLVESGGGVVQPGRSLRLSCAASGFTFRTYGMHWVRQAPGKGLEWVAVVWYDGSNTHYADSVKGRFTITRDNSKNTLNLQMNSLRAEDTAVYYCARAPQWESVHEAFDIWGQGTMVTVSS
VL: SYVLTQPPSVSVAPGQTARITCGGNNIGRFSVHWYQQKPGQAPVLVVYDDSDRPSWIPERFSGSNSGNTATLTISRGEAGDEADYYCQVWVSTSDKVVFGGGTKLTVL
Take B14: half-maximal inhibition in assay [2] (IC50) required 0.29 nM. In assay [1], this molecule registered a Kd of 0.00102 nM. In assay [3], the concentration giving a half-maximal response (EC50) came out at 0.291 nM.

B15: AB-2a (antibody, human IgG1, lambda)
heavy: not shown
light: SYVLTQPPSVSVAPGQTARITCGGNNIGSKSVHWYQQKPGQAPVLVVYDDSDRPSWIPERFSGSNSGNTATLTISRGEAGDEADYYCQIWDSSSSLVVFGGGTKLTVLGQPKAAPSVTLFPPSSEELQANKATLVCLISDFYPGAVTVAWKADSSPVKAGVETTTPSKQSNNKYAASSYLSLTPEQWKSHRSYSCQVTHEGSTVEKTVAPTECS
As for B15, the binding result with mouse TSLP is recorded as “no binding (tested: about 5 µg/ml)”. Also, the “IC50, cyno TSLPR/IL-7Rα Ba/F3 STAT5-luciferase assay” value in the assay with cynomolgus monkey TSLP [4] was 0.03 µg/mL. Moreover, the “IC50, human TSLPR/IL-7Rα Ba/F3 STAT5-luciferase assay” value in assay [5] stood at 0.02 µg/mL. In assay [6], this molecule had an EC50 of 0.03 µg/mL, an EC80 of 0.09 µg/mL and an EC90 of 0.15 µg/mL. In the assay with cynomolgus monkey TSLP [7], this molecule registered an EC80 of 0.1 µg/mL.
